{"source": "the nanobody polyreactivity screen of Harvey et al. (2022)"}
{"experiment": "yeast display, Sf9 membrane polyspecificity reagent, FACS + sequencing; frameworks hold sequencing errors", "how_it_was_run": "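Using colony PCR, genes from sorted yeast display clones were amplified, then sequenced on MiSeq at 2 × 250 and filtered by CDR length. The clones had been stained with 10% biotinylated, detergent-solubilized Sf9 membrane reagent for 1 hour at 4 °C and sorted by FACS into low and high (top ~1%) gates on anti-HA and streptavidin fluorescence. Polyreactivity labels come from the gate of origin.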"}
{"sequence": "QVHLVESGGGLVQAGVSLRLSCAASGFTFYRNAMGWYRQAPGKERELVAAISSRGGSTYYADSVKGRFTISRYNANNTVYFQMNSLKPEDTAVYYCAAYGNYNEYDYWGPGTQVTVSS", "polyreactivity (PSR sort gate)": "high polyreactivity"}
{"sequence": "QVHLVESGGGLVQAGVSLRLSCAASGSIFRINGMGWYRQAPGKERELVAAITRSGGSTFYADSVKGRFTISRDTAKNTVYLQMNSLKPEETAVYYCAAVWYYSTVPARYEYWGQGTQVTVSS", "polyreactivity (PSR sort gate)": "low polyreactivity"}
{"sequence": "QVHLVESGGGLVQEGGSLLLSCAASGSIFQIYTMGRYRQAPGKERELVAAISSSVSTNYADSVKGRFTISRDNAKNTVYLQMHTLKPEDTAVYYCNRDDYNTADRDASGYWGQGTQVTVSS", "polyreactivity (PSR sort gate)": "low polyreactivity"}
{"sequence": "QVHLVESGGGLVQPGGSLRLSCAASGNTFQSYARGWYRQAPRKEREFVAAIRQSGGSTYYAESLKGRFTISRDNSKYSVYLLMKRLKPEDTAVYYCGTGRSRVYNGRGDYWGQGTQVNVSS", "polyreactivity (PSR sort gate)": "high polyreactivity"}
{"sequence": "QVHLVESGGRLVLAGGSLRLSCAASRRIFDLNAMRGYIQAPGKERELFAAITNTGSTNYADSVKGRFTISRDNAKNTVYLQMNSLKPEDTAVYYCARTYWLRYFGYRDDEYDYWGQGTQVTVSS", "polyreactivity (PSR sort gate)": "low polyreactivity"}
{"sequence": "QVHLVESGGRLVQAGGSLRLRCAASGRTFIANVMGLYRQAPRKETELVAAISTRGGSTYYADSVKGRFTISRDYAKYTVYLHMNRLKPEDTAVDYCAAYYPAQRGFNSWGQGTQVTVSS", "polyreactivity (PSR sort gate)": "high polyreactivity"}
{"sequence": "QVHLVESGGVLVQAGGSLRLSCAASGRIFSYYAMGWYRQAPGKEREMVAAISWTVGSTYYADSVKGRFTISRDNAINTVYLQMNSLYPEDTAVFYCAAAYGWSWYRYDYWGQGTQVTVSS", "polyreactivity (PSR sort gate)": "high polyreactivity"}
{"sequence": "QVHLVESGVGLVKAGGTLRLSCAASGGIFIRNAMGWYRQAPGKERELVATISNAGSTYADAVKGRFTISRDNAKNPVHLQMHSLKPEDTAVYYCNRDDWTYPVYQGLQEYDYWGQGTQVSVSS", "polyreactivity (PSR sort gate)": "low polyreactivity"}
{"sequence": "QVHLVESGVGLVQAGGSLRLSCAASGYTFPAYAMGRYRQAPVKERELVAGISSGGRTYYAYSVKGRFTISRDNAKNTVYLQMNSLKPEDTAVYYCAAFRFYWQSPERYYYWGQGTQVSVSS", "polyreactivity (PSR sort gate)": "high polyreactivity"}
{"sequence": "QVHLVESGVGLVQAGGSRRLSCAASGVIFTGYAMGRYRHAPGKDRELVAAISSSGTSTYYADSVKGRFTISRDNAKYTVYLQINSLKPEDTAVYYCARVSKRTWSGYYFLGQGTQVTVSS", "polyreactivity (PSR sort gate)": "high polyreactivity"}
{"sequence": "QVHLVESRGVLVQAGGSLRLSCAASGRTFPSYTMGWYRQAPGKERELVAAITWTGGSTYYADSVKGRFTISRDNAKNTVYFQMNSLKPDDTAVYYCADYDYWGQGTQVTVSS", "polyreactivity (PSR sort gate)": "low polyreactivity"}
{"sequence": "QVHLVESVGGLVQAGGSLRLSCAASGFILAVYVLGWYRQAPGKDRELVAAISWSGGSTYYADSVKGRFTISRDNAKNTVYLQMNSLKPEATAVYYCNTVAKSPVKYDYWGQGTQVTVSS", "polyreactivity (PSR sort gate)": "high polyreactivity"}
{"sequence": "QVHLVESVGGLVQAGGSLRLSCAASGFIYKPYAMGWYRQAPGKERELVAAITVNGCTTYYADSVKARFTISRDNAKNTVYLQMNSLKPEDTAVYYCNRGSPGGPSWYHYDYWGQGTQVTVSS", "polyreactivity (PSR sort gate)": "high polyreactivity"}
{"sequence": "QVHLVESVGGLVQAGGSLRLSCAGSGRIFYLNSMGWYRQATGKDRELVAGITNSTTGTYYADSVKGRFKISRDNAKNTVYLQMNSLKAEETAVYYCNTDVAYEEPVETYDYWGQGTQVTVSS", "polyreactivity (PSR sort gate)": "low polyreactivity"}
{"sequence": "QVHLVETGGGLDQAGGSLRLSCAASGYTFKTNDMRAYSPPPGKDREFVAAISAIGASTYYADSVKGRFTISRDTAKNTVYLQMKSLKPEDTAVYYCATGPYPLWYVWTDGYDHWGQGTQVPVSS", "polyreactivity (PSR sort gate)": "low polyreactivity"}
{"sequence": "QVHLVGSGGCLVQAGGSLRLSCAASGITFYYYVMGWYRQSPGKERELVAAINSGGSTNYADSVKGRFTISRDNAKNTVYLQMNSLKPEDTAVYYCNAYTVRSYRFDYWGQGTQVTVSS", "polyreactivity (PSR sort gate)": "high polyreactivity"}
{"sequence": "QVHLVVSGGGLVQAGGSLRLMCAASGSTFKYYVMGWYRQAPGKERELVAAISGSGGSKYYADSVKGRFTISRDNAKNTVYLQMNSLIPEDTAVYYCAAGRLRGPGYYFTFDYWGQGTQVTVSS", "polyreactivity (PSR sort gate)": "high polyreactivity"}
{"sequence": "QVHPVESGGGLVQAGGSIRLSCAASGRIFRRYTMGWYRQAPGHERELVAAITRGGGSTSYADSVKGRFTISRDNAKNTVYLQMNSLKPEDTAVYYCAAQARTSTIRGYDYWGQGTQVTVSS", "polyreactivity (PSR sort gate)": "high polyreactivity"}
{"sequence": "QVHRVVSGGGLVQAGGSLRLSCSAYGFTFYLYAMGWYRQAPGKERELVAAISSGTSTYYADSVKGRFTISRDNAKNTVYLQMNSLKPEDTAVYYCDAATNWGGEYWGHGTQVTVSS", "polyreactivity (PSR sort gate)": "high polyreactivity"}
{"sequence": "QVKIVESVGGLVQSGGSLRLSCAASGRTFHRNARGLYREAPGTEREWVATITTNGGATDYADTVTGRFTSSRDNAKNTFYFHMHSQIPEDTAVYYCSAPFNPRVRPLGSVRMYYWGQGTQVTVSS", "polyreactivity (PSR sort gate)": "low polyreactivity"}
{"sequence": "QVKLEESGGGLVQAGGSLRLTCAASGSTFKYNAMGWYRQAPGKERELVAAISSGGSTNYADSVKGRFTISRDNAMNTVYLQMISLKPEDTAVYYCNADYTYVTAWYYYWGQGTQVTVSS", "polyreactivity (PSR sort gate)": "high polyreactivity"}
{"sequence": "QVKLLESGGGLLQAGGSLRLSCAASGLTFYPYAMAWYRQAPGKERELVATITWSGTTTYYADSVKGRFTISRDNAKNTVYVQMNSLKPEDTAVYYCAADLWEVVTPYVTIDDDYWGQGTQVTVSS", "polyreactivity (PSR sort gate)": "high polyreactivity"}
{"sequence": "QVKLLESVGGLVQAGGSLRLSCMASGSILGDRMSWYRQPPGKEHELVATIYDGGITYYADSMKGRFTISRDNAKNTVYLQMNSLRPEDTAVYYCGASLEGYRYHVYCGQGTQVTVSS", "polyreactivity (PSR sort gate)": "low polyreactivity"}
{"sequence": "QVKLQESGGGLVQAGGSLRLSCAASGYISHADEMGWYRQAPGKEHELVASISNGGSTNYADSVKGRFTISRDNAKNTVYLQMNSLKWEDTAVYYWAAWTGQVDIHYYWGQGTQVTVSS", "polyreactivity (PSR sort gate)": "low polyreactivity"}
{"sequence": "QVKLVDSGGGLVQAGGSLRLSCAASGRTFWNYAMGWYRQAPGKERELVAVIRFSDGSTYYADSVKGRFTISRDNAKNTVYLQMNSLKPEDTAVYYCAAKGPRRWGSGFDYWGQGTQVTVSS", "polyreactivity (PSR sort gate)": "low polyreactivity"}
{"sequence": "QVKLVDSGGGLVQAGGSLRLTCAASGITFDKYAMGWYRQAPGKERELVAAITKSSGSTYYADSVKGRFTISRVNAKNTDYLQMNSLKAEDTAVYYCAAGIVYCEYFWGQGTQVTVSS", "polyreactivity (PSR sort gate)": "high polyreactivity"}
{"sequence": "QVKLVDTGGGLVKAGGSLLLSCAASGSPFVWYGMGWYRQSHGKEREFDAAISTSGGRTYYADSVKGRFTISRDNAKNTVYLQMNSLKPEDTAVYYCARQPRLYFKGKLYGYWGQGTQVTVSS", "polyreactivity (PSR sort gate)": "high polyreactivity"}
{"sequence": "QVKLVESAAGLVQAGGSLRLSCDASGFTFALYANGLYIQAPRKERELVAVITYCGGRTYYADSVKGRFTISRVNAKNTVYLLMYSLKPEDTAVYYCNARYRQKGLYGTAFDYWGQGTQVTVSS", "polyreactivity (PSR sort gate)": "high polyreactivity"}
{"sequence": "QVKLVESAGGLVQAGGSLRLSCSASAFIFGFNAMGWYRQEPGKERELVAAITWRGGRTSNADSVKGRFTISRDNAKNTVYLQMNSLKPEDTAVYYCAARRGTIVTRSRGYNYWGQGTQVTVSS", "polyreactivity (PSR sort gate)": "high polyreactivity"}
{"sequence": "QVKLVESGGCLVKAGGSLRLSCAATGRIFLYYAMGWYRQAPGKEMELVATITSGGRTNYADSVKGRFTISRDNAKNTVYLQMNSLKPVDTAVYNCARQSYGSYRRYGFSALYGYLGQGTQVTVSS", "polyreactivity (PSR sort gate)": "high polyreactivity"}
{"sequence": "QVKLVESGGGLDQAGGSLRLSCAASGTIFRKNAMGWYRQAPGKERELVAAMTGTGRTTYADSVKGRFTISRDNAKNTFYLQMNSLKPEDTAVYYCAADVNYYQHRLYYWGQGTQVTVSS", "polyreactivity (PSR sort gate)": "low polyreactivity"}
{"sequence": "QVKLVESGGGLFQAGGSLRLSCAASGITFTFNAMGWYRQAPGKERELVAAITWSGGSTFYADSVKGRFTISRDNAKNTVYLQMNSLKPEDTAVYYCARDTELYVRWLDYWGQGTQVTVSS", "polyreactivity (PSR sort gate)": "low polyreactivity"}
{"sequence": "QVKLVESGGGLVKAGASLRLSCAASGSTLQHYAMGWYRQAPGKERELVAAINRSGDRTYYADSVKGRFTISRDNAKTTVYLQMNSLKPEDTPVDYCAAYDDYRAPVRYEYWGQGTQVTVSS", "polyreactivity (PSR sort gate)": "high polyreactivity"}
{"sequence": "QVKLVESGGGLVQAGCSLRLTCAASGSTSDMKAMGWYRQAPGKERELVAAISYSGGSTYYADSVKGRFTMSRDNAKNTVYLQMNSLKPEDTAVYYCAKQVADRYDYWGQGTEVTVSS", "polyreactivity (PSR sort gate)": "low polyreactivity"}
{"sequence": "QVKLVESGGGLVQAGGRLRLSCAASGSIFTYYAMGWYRQAPGKERELVAAISYGGGSTYYADSVKGRFTISRDNAKYTVYLQMNSLKPEDTAVYDCNGVLGVNYGYWGQGTQVTVSS", "polyreactivity (PSR sort gate)": "high polyreactivity"}
{"sequence": "QVKLVESGGGLVQAGGSLRLICAASGRISQSNAMGRYRQAPGKERELVAAISWRGGSTYYADSVMGRFTISRDNAKNTVYLQMNSLKPEDTAVYYSAVRGKYDRHYYWGQGTQVTVSS", "polyreactivity (PSR sort gate)": "high polyreactivity"}
{"sequence": "QVKLVESGGGLVQAGGSLRLRCAASGIIFDYYAMGWYRQAPGKERELVAAISKRGGSTYYADSVKGRFTISRDNAKNTVYLQMNSLKPEDTAVYYCAAVYAREAKRYDYWGQGTQVTVSS", "polyreactivity (PSR sort gate)": "high polyreactivity"}
{"sequence": "QVKLVESGGGLVQAGGSLRLSCAASGFTFRRYAMGWYRQAPGKERELVAGITSGGSTYYADSVKGRFTISRDNAKNTVYLQMNSLKPEDTAVYYCNTKVISRTSERRGNGFTRYDYWGQGTQVTVSS", "polyreactivity (PSR sort gate)": "low polyreactivity"}
{"sequence": "QVKLVESGGGLVQAGGSLRLSCAASGFTFYYYTMGGSRQAPGKERELVAAITSRGGNTYYADSVKGRFTISRDYEKNTVYLQMNSLKPEDTAVYYCAACLFSSRCYGYWGQGTQVTVSS", "polyreactivity (PSR sort gate)": "high polyreactivity"}
{"sequence": "QVKLVESGGGLVQAGGSLRLSCAASGFTIRSYVMGWYRQAPGKERELVAAIRRSGGSTYYADSVKGRFTISRDNAKNTVYFQMNSLKREDTAVYYCAAYIWWRDYIEFDYWGQGTQVTVSS", "polyreactivity (PSR sort gate)": "high polyreactivity"}
{"sequence": "QVKLVESGGGLVQAGGSLRLSCAASGGIFSPNAMGWYRHAPGKERELVAAISSNGGSTNYADSVKGRFTISRDNAKNTVYLQMNSLKPEDNAVYYCAKVYRSIGPNVSRYGLSYYYWGQGTQVTVSS", "polyreactivity (PSR sort gate)": "low polyreactivity"}
{"sequence": "QVKLVESGGGLVQAGGSLRLSCAASGGNFGNYAMGWYRQAPWKERELVATIRYRGGSTYYADSVKGRFTISRDNAKITVYLQMNSLIPEDTAVFYCAARRSHPQDPRFRYGYWGQATQVTVSS", "polyreactivity (PSR sort gate)": "high polyreactivity"}
{"sequence": "QVKLVESGGGLVQAGGSLRLSCAASGGNFYRYAMGWYRQAPGKERELVAAITRGDSTNYADSVKGRFTISRDNAKNTVYLQMNSLKPEDTAVYYCNAAVSARQNDTGGFQGDYWGQGTQVTVSS", "polyreactivity (PSR sort gate)": "low polyreactivity"}
